Values belong to the molecule of their own block, whether it stands above or below them.
What was measured:
[1] = target: T1, L-PaPPO (latent polyphenol oxidase from apricot) (Prunus armeniaca, UniProt O81103); assay: inhibition of catechol oxidation, absorbance; format: biochemical; conditions: for activity at 1000 µM: read-out: 1 mM
T1 construct: gene PPO; native, purified from fruit; latent mature form Asp102-Ser597 (496 residues), transit peptide removed; 63 kDa by SDS-PAGE; no tag
Description: inhibition of catechol oxidation, absorbance on L-PaPPO (latent polyphenol oxidase from apricot)

[2] = target: T1, L-PaPPO (latent polyphenol oxidase from apricot); assay: quinone formation, absorbance, microplate reader; nonlinear regression; format: biochemical; conditions: 50 mM sodium citrate pH 4.5, 25 °C, no SDS; triphenol substrate; latent enzyme activated in the assay
Description: (§1) quinone formation, absorbance, microplate reader; nonlinear regression on L-PaPPO (latent polyphenol oxidase from apricot)

[3] = target: T2, A-PaPPO (activated polyphenol oxidase from apricot) (Prunus armeniaca, UniProt O81103); assay: in-gel activity staining, partially denaturing SDS-PAGE; format: biochemical; conditions: 0.2 M catechol, 50 mM sodium citrate pH 6.5, 25 °C
T2 construct: gene PPO; native, from fruit; C-terminal domain lost during storage at 4 °C; 38 kDa by SDS-PAGE
T2 sequence (O81103 102-429): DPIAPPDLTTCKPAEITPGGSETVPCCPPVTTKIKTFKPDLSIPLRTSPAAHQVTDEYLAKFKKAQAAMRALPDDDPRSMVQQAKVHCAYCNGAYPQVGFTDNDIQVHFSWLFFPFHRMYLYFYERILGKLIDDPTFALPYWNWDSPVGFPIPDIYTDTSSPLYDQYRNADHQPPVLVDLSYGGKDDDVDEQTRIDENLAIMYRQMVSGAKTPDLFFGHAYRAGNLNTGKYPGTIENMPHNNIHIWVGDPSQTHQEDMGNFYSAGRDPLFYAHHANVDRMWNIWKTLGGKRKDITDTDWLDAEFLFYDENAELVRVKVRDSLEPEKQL

[4] = substrate: Oc1ccccc1O; assay: quinone formation, absorbance, microplate reader; nonlinear regression; format: biochemical, Prunus armeniaca; conditions: 50 mM sodium citrate pH 4.5, 25 °C, no SDS, diphenolase, latent enzyme activated in the assay
Description: as §1

[5] = substrate: Cc1ccc(O)c(O)c1; assay: as above; format: biochemical, Prunus armeniaca; conditions: 50 mM sodium citrate pH 4.5, 25 °C, no SDS, diphenolase, latent enzyme activated in the assay
Description: as §1

[6] = substrate: O=C(/C=C/c1ccc(O)c(O)c1)O[C@@H]1C[C@](O)(C(=O)O)C[C@@H](O)[C@H]1O; assay: purified protein; conditions: 50 mM sodium citrate pH 4.5, 25 °C, no SDS, diphenolase, latent enzyme activated in the assay

Km [2]: 11 ± 1.5 mM
Molecule: Oc1cccc(O)c1O [pyrogallol]

activity at 10000 µM ([1]; read-out: 10 mM): 89.1 ± 0.53%
Molecule: O=C(O)CCC(=O)O [succinic acid]

More lines, now with the values behind:

Molecule: O=C(O)c1ccccc1 [benzoic acid]
activity at 1000 µM [1]: 41 ± 1.2%

Molecule: Oc1ccccc1O [catechol]
in-gel activity staining, partially denaturing SDS-PAGE [3]: single band was detected by in-gel enzymatic activity staining with catechol as substrate

Molecule: CCCCCCc1ccc(O)cc1O [4-hexylresorcinol]
activity at 100 µM ([1]; read-out: 0.1 mM): 34 ± 1.4%

Molecule: O=c1cc(CO)occ1O [kojic acid]
activity at 1000 µM [1]: 28 ± 1.1%

B1: L-PaPPO (latent polyphenol oxidase from apricot) (Prunus armeniaca) (protein)
chain: DPIAPPDLTTCKPAEITPGGSETVPCCPPVTTKIKTFKPDLSIPLRTSPAAHQVTDEYLAKFKKAQAAMRALPDDDPRSMVQQAKVHCAYCNGAYPQVGFTDNDIQVHFSWLFFPFHRMYLYFYERILGKLIDDPTFALPYWNWDSPVGFPIPDIYTDTSSPLYDQYRNADHQPPVLVDLSYGGKDDDVDEQTRIDENLAIMYRQMVSGAKTPDLFFGHAYRAGNLNTGKYPGTIENMPHNNIHIWVGDPSQTHQEDMGNFYSAGRDPLFYAHHANVDRMWNIWKTLGGKRKDITDTDWLDAEFLFYDENAELVRVKVRDSLEPEKQLRYNYEPVSLPWLFTKPTARKTKNKTKAKVAATQLTSKFPATLVEVTTVEVARPKPRKRSKKEKVDEEELLIIKDIEFEGTEAVKFDVFINDDAESLSRRDKSEFAGSFVHVPQGKTTKAKTKTNLKLGITDLLEDLGAEDDSSVLVTLVPRVSNSPITIGGFKIEYSS
notes: native, purified from fruit; latent mature form Asp102-Ser597 (496 residues), transit peptide removed; 63 kDa by SDS-PAGE; no tag
Km [4]: 5.3 ± 0.60 mM | kcat [4]: 210 ± 30 s⁻¹ | kcat/Km [4]: 40000 ± 10000 M⁻¹ s⁻¹ | Km [5]: 2.0 ± 0.26 mM | kcat [5]: 700 ± 110 s⁻¹ | kcat/Km [5]: 340000 ± 70000 M⁻¹ s⁻¹ | Km [6]: 2.7 ± 0.16 mM | kcat [6]: 1400 s⁻¹ | kcat/Km [6]: 500000 M⁻¹ s⁻¹

Reference: publication PMC5609118, “Purification and Characterization of Latent Polyphenol Oxidase from Apricot (Prunus armeniaca L.)” (Journal of Agricultural and Food Chemistry, 2017)
